This note sets out measurements from patent US20210371503A1.

B1: MnC4t1p1_A10 (antibody, V domains shown)
VH: QLQVQESGPGLVKPSETLSLTCTVSGASISSNHYFWGWIRQPPGKGLAWIGSMHYSGSTYYNPSLKSRVTISVDTSKNQLSLKLSSVTAADTAVYYCARGVNYYDRNGYYRNDGFDIRGQGTMVTVSS
VL: DIQMTQSPSSLSASVGDRVTITCRASQGIRNDLGWYEQKPGKAPKRLIYAASSLESGVPSRFSGSGSGTEFTLTISSLQPEDFATYYCLQHNTYPFTFGPGTRVDIK
B2: MnC4t2p1_D10 (antibody, V domains shown)
VH: QLQVQESGPGLVKPSETLSLTCTVSGASISSNHYFWGWIRQPPGKGLAWIGSMHYSGSTYYNPSLKSRVTISVDTSKNQLSLKLSSVTAADTAVYYCARGVNYYDRNGYYRNDGFDIRGQGTMVTVSS
VL: DIQMTQSPSSLSASVGDRVTITCRASQGIRNDLGWYEQKPGKAPKRLIYAASSLESGVPSRFSGSGSGTEFTLTISSLQPEDFATYYCLQHNTYPFTFGPGTRVDIK
B3: MnC4t2p1_F5 (antibody, V domains shown)
VH: QLQVQESGPGLVKPSETLSLTCTVSGASISSNHYFWGWIRQPPGKGLAWIGSMHYSGSTYYNPSLKSRVTISVDTSKNQLSLKLSSVTAADTAVYYCARGVNYYDRNGYYRNDGFDIRGQGTMVTVSS
VL: DIQMTQSPSSLSASVGDRVTITCRASQGIRNDLGWYEQKPGKAPKRLIYAASSLESGVPSRFSGSGSGTEFTLTISSLQPEDFATYYCLQHNTYPFTFGPGTRVDIK

The experiment has as its target SARS-CoV-2 (spike protein) antigen of the Euroimmun IgG detection kit. In words: Euroimmun IgG ELISA kit, antibody at 50 µg/ml [cont'd]. Background: ELISA stands for enzyme-linked immunosorbent assay.
B1 returned an IgG detection test of 4.87.

In turn, B2 registered an IgG detection test of 5.3.

As for B3, the IgG detection test came to 5.19.
